According to patent publication US9873883B2, “Glyphosate resistant plants and associated methods” (Dow AgroSciences LLC, priority 2012, dated 2018):

Test system: C=C(OP(=O)(O)O)C(=O)O
Test: In vitro kinetic assay (inorganic phosphate production, malachite green)
Type: biochemical, Mariprofundus ferrooxydans
Settings: other: pH 7.5, 1 mM S3P

**Q.** For “Mariprofundus ferrooxydans EPSP synthase DGT-14 variant DGT-14 v6 (G101A), SEQ ID NO:1 (Mariprofundus ferrooxydans PV-1; G101A)”, which Km is on record?
**A.** 352.5 µM
